Laboratory results reported in paper PMC4954732.

What was measured:
[1] = biological target: T1, SrbA bHLHZ (Aspergillus fumigatus) (UniProt Q4WIN1); assay: SPR; conditions: SPR on immobilised biotinylated duplexes, 1:1 model with mass transport; buffer, salt, pH and temperature not stated (protocols of refs 19, 54)
T1 sequence: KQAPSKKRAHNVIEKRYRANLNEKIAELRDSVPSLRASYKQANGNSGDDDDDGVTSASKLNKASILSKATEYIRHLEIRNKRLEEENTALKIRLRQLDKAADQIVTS

[2] = system: CBC (HapB/HapC/HapE) (Aspergillus fumigatus); assay: SPR; conditions: SPR on immobilised biotinylated duplexes, 1:1 model with mass transport; buffer, salt, pH and temperature not stated (protocols of refs 19, 54)

AGAATCACGCGGTCCG (double strand) [SRE1 (cyp51Ap-320-16)]
Kd [1]: 22.8 nM

CGGCTCAGCACACATC (double strand) [SRE2 (cyp51Ap-295-16)]
Kd [1]: 273 nM

GCTGAGCCGAATGAAAGTTGCCTAATTACTAAGGTGT (double strand) [cyp51A-293]
Kd [2]: 74.4 nM

GCTGAGCCGAATGAATCACGCGGTCCGGATGTGTGCT (double strand) [cyp51A-TR34]
fold decrease in affinity (fold lower affinity than cyp51A-293) [2]: 8
